{"source": "paper PMC6874091", "target": "14-3-3 (endogenous, detected with a 14-3-3 antibody; isoform not told) (UniProt Q04917)", "sequence (Q04917 whole entry, the tested form may be a part, canonical isoform)": "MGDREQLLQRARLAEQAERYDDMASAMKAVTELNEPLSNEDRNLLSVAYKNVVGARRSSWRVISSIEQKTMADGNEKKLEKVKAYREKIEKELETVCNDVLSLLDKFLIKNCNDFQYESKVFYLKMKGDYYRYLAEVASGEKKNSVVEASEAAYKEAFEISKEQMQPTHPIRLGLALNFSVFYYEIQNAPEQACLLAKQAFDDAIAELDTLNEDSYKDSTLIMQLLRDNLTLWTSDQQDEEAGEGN", "assay": "anti-FLAG co-immunoprecipitation, western blot densitometry", "settings": "HeLa cells, transfected; mean ± SD of three experiments; read off a plot", "data": [{"substance": "3xFLAG-BPLF1 (amino acid residues 1-235), catalytically active N-terminal deconjugase domain of the Epstein-Barr virus large tegument protein BPLF1 (from UniProt P03186) D86R; D90R", "values": [{"measurement": "ratio to parent", "result": 0.49}]}]}
